From patent publication US5807824A, “C5A receptor antagonists having substantially no agonist activity” (priority 1995, dated 1998) come the findings set out here.

Assay [1] deals with T1, C5a receptor (Homo sapiens, UniProt P21730).
T1 construct: Neutrophils were purified from human peripheral blood; endogenous in cells; host or cells: neutrophils from human peripheral blood
T1 sequence (P21730 1-350): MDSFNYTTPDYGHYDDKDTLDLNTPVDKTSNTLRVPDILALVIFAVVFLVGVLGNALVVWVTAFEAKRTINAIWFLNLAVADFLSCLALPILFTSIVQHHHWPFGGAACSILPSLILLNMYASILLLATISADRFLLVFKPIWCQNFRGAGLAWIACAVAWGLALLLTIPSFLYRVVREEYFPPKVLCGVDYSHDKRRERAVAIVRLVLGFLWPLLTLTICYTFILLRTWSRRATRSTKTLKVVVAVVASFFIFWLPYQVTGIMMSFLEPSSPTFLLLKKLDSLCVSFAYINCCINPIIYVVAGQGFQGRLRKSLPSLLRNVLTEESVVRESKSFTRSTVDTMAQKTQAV
Kind of assay: Receptor binding assay: displacement of [125I]Bolton-Hunter labelled C5a from PMNL membranes. How it is done: C5a and C5a receptor antagonists were tested for their affinity for the C5a receptor. […] PMNLs were resuspended in Hanks balanced salt solution, without Ca^++ and Mg^++ and which contained 10 mM HEPES at pH 7.3, 2.5 mM MgCl2, 100 units/ml DNAse I, 0.1 mM PMSF, 10 μg/ml aprotonin and 10 μg/ml leupeptin. They were then equilibrated at 400 psi for 20 min at 4° C. in a nitrogen cavitation bomb. After evacuation into 3 volumes 0.5M KHCO3 containing 25 mM EDTA and the protease inhibitors listed above, the gelatinous material was removed with forceps and the mixture was centrifuged at 400×g for 10 min at 4° C. The resulting supernatant was centrifuged at 50,000×g for 60 min at 4° C. The pellets from the aliquots representing 200×10^6 cells were stored at -70° C. For binding studies, these membranes were resuspended at an equivalent of 20×10^6 cells/ml in 50 mM HEPES at pH 7.3, containing 1 mM CaCl2, 5 mM MgCl2, 0.1 mM PMSF, 0.1% bacitracin and 0.5% BSA.
Nonspecific binding was determined in the presence of 10 nM unlabelled C5a. The binding reaction was initiated by the addition of the PMNL membranes and was continued for 120 min at 4° C. Bound and free radioactivity were separated by vacuum filtration through GF/C glass fiber filters (Whatman), pretreated for 90 min with 0.05% PEI (polyethyleneimine) using a Cell Harvester (Brandel, Gaithersburg, Md.). Filters were washed with 3×5 ml of ice-cold 5 mM Tris buffer at pH 7.4 and counted in a multiwell Gamma counter (Genesys). Data were analyzed using the non-linear regression analysis program, RS/1 (Bolt, Beranek and Newman, Boston) and expressed as IC50 values. The results are set forth below in Table 4 as Ki values using the Cheng-Presoff equation. See Braunwalder et al., supra.
On the technique in general: Displacement assays read how much labelled ligand stays bound in the presence of the test substance.

The target in assay [2] is T1, C5a receptor. Kind of assay: C5a induced Ca++ rise assay in fura-2 loaded neutrophils. The assay is classed as cell-based. An excerpt: The antagonism of the instant C5a analogues may be quantified as an IC50 in the calcium rise assay disclosed in Seligmann et al., Agents and Actions 21:375-378 (1987), described in detail in Example 7.
See Hugli et al., CRC Crit. Rev. Immunol. 1:321-326 (1981) and PCT WO 92/10205. A quantitative measure of this property may also be obtained using the calcium rise assay disclosed in Seligmann et al., supra, also described in Example 7. EC50 is a measure of agonistic activity.
Recombinant human C5a was dissolved in Hanks buffer containing 0.01% Tween-20, and all stock dilutions of C5a were made in this buffer. The acetoxymethyl ester of fura-2 (fura 2AM, Molecular Probes) was dissolved in DMSO. Neutrophils were purified from human peripheral blood by sedimentation in 6% hetastarch (HESPAN, DuPont, Waukegan, Ill., followed by counter flow elutriation as described in Chapman-Kirkland et al., J. Immunol. Meth. 142:95-104 (1991). Purified cells (2×10^6/ ml) were mixed with 0.2 uM fura- 2AM and incubated for 30 min at 37° C. in HEPES buffered Hanks solution without calcium or magnesium. Fifteen minutes before the assay, the cell suspension was transferred to a curvette containing a stir bar and calcium was added to 1 mM. The cell suspension was incubated with stirring at 37° C. Assays were terminated within 5 h of cell purification and a standard control response was obtained periodically to insure that the cell responses were not changing over the time of the experiment. The amount of fluorescence was determined using an SLM 8000 spectrofluorometer (SLM-Aminco Instruments, Urbana, Ill.). Curvettes were placed in the fluorometer and after obtaining a baseline for 10 sec, the C5a receptor antagonists to be tested for antagonistic properties were added and any change in fluoresence excitation ratio of 340 nm/380 nm (emission of 510 nm) was measured. Forty seconds after analogue addition, a challenge dose of C5a was added to a final concentration of 100 pM and the resulting change in excitation ratio was measured.
IC50 values were used as a measure of antagonist potency. These values are defined as the concentration of C5a analogue needed to reduce the calcium rise response of the 100 pM C5a challenge dose by 50%. EC50 values were used as a measure of agonist potency. […]

Assay [3] concerns C5a-induced enhancement in vascular permeability. Kind of assay: Rabbit dermal model of inflammation ([125I]-BSA exudation at intradermal sites). The assay is classed as in vivo, New Zealand White rabbits. On the procedure: All experiments were performed on male New Zealand White rabbits weighing 2.5-3.0 kg. The backs of the rabbits were shaved and 40-50 skin sites were designated with markers of different colors. Different stimuli (i.e., C5a, C5a analogue, C5a+C5a analogue, vehicle control, etc.) were injected intradermally at 0.1 ml/site using a sterile, disposable, 26 gauge, 0.5 in. needle and 1.0 cc tuberculin syringe. I.D. injections were administered in replicates of six, roughly 45 minutes before euthanization. C5a alone was injected at a dose of 50 ng/site, and the C5a receptor antagonists were co-injected at various concentrations with the same dose of C5a. At 20 minutes prior to euthanization, 18-36 uCi of [125I]-labeled bovine serum albumin in 1.0 ml physiological saline were introduced into the systemic circulation via the marginal auricular vein. At 45 minutes, the rabbit was euthanized with an I.V. overdose of sodium pentobarbital. […]
After death, the dorsal skin was excised and pinned to a wooden dissecting board. […] This procedure reduced variation among skin sites and decreased background radioactivity. […] Injection sites were then analyzed for their radioactive content using a Gamma Counter (Genesys).

For another assay, the system named is C5a-induced neutropenia. Kind of assay: C5a-induced neutropenia in the rabbit. The assay is classed as in vivo, New Zealand White rabbits. The note with it: i.v. bolus; for Inhibition of C5a-induced neutropenia versus vehicle-treated rabbits: 100 ng C5a. On the procedure: All experiments were performed on male New Zealand White rabbits weighing 2.5-3.0 kg. Rabbits were anesthetized with 10 mg/kg xylazine and 50 mg/kg ketamine administered in combination intramuscularly. A 25 gauge butterfly catheter was inserted in the lateral ear vein to use for infusions. Each blood sample (0.2 ml) was collected from the central ear artery into a plastic syringe fitted with a 25 gauge, 5/8 inch needle and charged with 7.5% EDTA as an anticoagulant. Blood was immediately expressed into a microcentrifuge tubes containing 10 microliters of 7.5% EDTA. An initial arterial blood sample (#1) was obtained and immediately thereafter vehicle or the C5a analogue of Example 8 was infused intravenously (bolus injection). Twenty seconds later, a second blood sample (#2) was obtained and twenty seconds thereafter 100 ng of C5a in 0.2 ml were infused intravenously (bolus injection). Twenty seconds later, a third blood (#3) sample was taken. Thirty minutes later, a second round of blood sample (#4)----20 seconds--C5a infusion--20 seconds--blood sample (#5) was performed. Blood samples were evaluated by automated hematologic analysis (Technicon H*1) using software specific for rabbit blood. Reductions in neutrophil counts (number per milliliter) induced by C5a(C5a-induced neutropenia, determined by comparing blood sample #3 to #2 and #5 to #4) were compared between vehicle-treated and C5a analogue-treated animals.

[4] abbreviates: Table 6, Example 10 comparison with decapeptide.

B1: C5a (1-71, T1M, C27S, Q71C) (protein, UniProt P01031 678-751, looked up, variant T1M C27S Q71C)
C5a anaphylatoxin: MLQKKIEEIAAKYKHSVVKKCCYDGASVNNDETCEQRAARISLGPRCIKAFTECCVVASQLRANISHKDMCLGR
modifications: C5a anaphylatoxin
With B1, the inhibition constant Ki with C5a receptor [1] (Table 4, [125I]BH-C5a 4.0 pM, PMNL membranes, Cheng-Prusoff) stood at 200 pM; with C5a receptor [1] (setting [4]) it was 40 pM. The same molecule gave an IC50 with C5a receptor [2] (setting [4]) of 51000 pM. The “Concentration up to which tested with agonist activity not detected” value with C5a receptor [2] (calcium rise assay) was > 3 µM. Also, in assay [3] (analogue at 175 ng/site intradermally), the “Pro-inflammatory reaction (agonist properties in vivo)” value is listed as “did not cause a pro-inflammatory reaction”. Besides, in assay [3] (co-injected intradermally with 50 ng C5a/site), the “ID50 (dose causing 50% reduction in radioactivity produced by C5a)” value is reported as 70 ng/site. Further, the “Effect on baseline neutrophil counts (agonistic, C5a-like properties)” value in the assay with C5a-induced neutropenia (before C5a challenge) is reported as “did not alter baseline neutrophil counts from normal”. The “Inhibition of C5a-induced neutropenia versus vehicle-treated rabbits” value is reported as 41% in the assay with C5a-induced neutropenia (30-minute C5a challenge interval) and 67% in the assay on C5a-induced neutropenia (40-second C5a challenge interval).

Broadly, the Ki is the equilibrium dissociation constant of an inhibitor or competing ligand from its target. A word on the IC50: it is the concentration needed to halve the response being measured. Read a high IC50 as a need for much substance.
